Measured values as given in paper PMC6344864 (Nucleic Acids Research, 2018).

T1: Rdh54/Tid1 (Saccharomyces cerevisiae, UniProt P38086 1-958)
T1 sequence: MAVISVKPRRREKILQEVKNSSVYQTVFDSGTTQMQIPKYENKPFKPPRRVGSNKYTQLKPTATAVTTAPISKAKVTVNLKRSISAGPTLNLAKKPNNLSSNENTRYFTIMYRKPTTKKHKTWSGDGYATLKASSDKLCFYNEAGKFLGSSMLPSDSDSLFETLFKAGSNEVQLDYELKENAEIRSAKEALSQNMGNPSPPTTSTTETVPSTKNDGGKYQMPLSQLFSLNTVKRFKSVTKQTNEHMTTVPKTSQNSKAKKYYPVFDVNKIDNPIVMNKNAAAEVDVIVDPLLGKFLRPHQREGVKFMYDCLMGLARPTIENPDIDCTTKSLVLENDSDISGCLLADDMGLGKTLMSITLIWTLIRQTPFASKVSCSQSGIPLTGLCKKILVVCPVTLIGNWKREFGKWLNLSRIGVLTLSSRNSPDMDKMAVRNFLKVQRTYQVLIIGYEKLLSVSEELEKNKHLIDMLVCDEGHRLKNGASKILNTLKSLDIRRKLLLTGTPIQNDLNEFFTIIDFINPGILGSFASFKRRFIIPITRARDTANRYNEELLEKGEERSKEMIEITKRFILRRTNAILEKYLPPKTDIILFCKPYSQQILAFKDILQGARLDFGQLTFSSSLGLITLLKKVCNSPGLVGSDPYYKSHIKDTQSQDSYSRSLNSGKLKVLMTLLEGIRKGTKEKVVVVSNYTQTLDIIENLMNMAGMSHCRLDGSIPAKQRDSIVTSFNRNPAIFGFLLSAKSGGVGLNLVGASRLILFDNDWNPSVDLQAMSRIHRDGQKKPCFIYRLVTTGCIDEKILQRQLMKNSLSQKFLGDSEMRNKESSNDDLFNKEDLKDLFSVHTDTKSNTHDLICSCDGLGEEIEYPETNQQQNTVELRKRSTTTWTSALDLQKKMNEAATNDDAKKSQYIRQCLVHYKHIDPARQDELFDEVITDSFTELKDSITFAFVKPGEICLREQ

T2: His6-tagged Dmc1 (Saccharomyces cerevisiae, UniProt P25453 1-334)
T2 sequence (looked up): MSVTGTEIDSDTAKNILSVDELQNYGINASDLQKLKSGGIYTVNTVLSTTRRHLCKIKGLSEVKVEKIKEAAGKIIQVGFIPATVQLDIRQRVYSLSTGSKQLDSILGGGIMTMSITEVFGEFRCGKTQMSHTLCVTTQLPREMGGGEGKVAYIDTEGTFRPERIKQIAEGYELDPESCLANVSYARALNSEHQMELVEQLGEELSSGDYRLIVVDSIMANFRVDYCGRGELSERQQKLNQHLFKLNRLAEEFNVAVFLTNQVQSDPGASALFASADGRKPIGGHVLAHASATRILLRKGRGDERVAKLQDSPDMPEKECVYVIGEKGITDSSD


Key:
[1] = biological target: T1, Rdh54/Tid1; experiment: fluorescence polarization
[2] = biological target: T2, His6-tagged Dmc1; experiment: co-IP
[3] = biological target: Replication protein A (RPA), Saccharomyces cerevisiae (Saccharomyces cerevisiae, UniProt P22336 1-621; P26754 1-273; P26755 1-122); experiment: pull-down
Replication protein A (RPA), Saccharomyces cerevisiae, sequence (P22336 whole entry, chain 1 of 3): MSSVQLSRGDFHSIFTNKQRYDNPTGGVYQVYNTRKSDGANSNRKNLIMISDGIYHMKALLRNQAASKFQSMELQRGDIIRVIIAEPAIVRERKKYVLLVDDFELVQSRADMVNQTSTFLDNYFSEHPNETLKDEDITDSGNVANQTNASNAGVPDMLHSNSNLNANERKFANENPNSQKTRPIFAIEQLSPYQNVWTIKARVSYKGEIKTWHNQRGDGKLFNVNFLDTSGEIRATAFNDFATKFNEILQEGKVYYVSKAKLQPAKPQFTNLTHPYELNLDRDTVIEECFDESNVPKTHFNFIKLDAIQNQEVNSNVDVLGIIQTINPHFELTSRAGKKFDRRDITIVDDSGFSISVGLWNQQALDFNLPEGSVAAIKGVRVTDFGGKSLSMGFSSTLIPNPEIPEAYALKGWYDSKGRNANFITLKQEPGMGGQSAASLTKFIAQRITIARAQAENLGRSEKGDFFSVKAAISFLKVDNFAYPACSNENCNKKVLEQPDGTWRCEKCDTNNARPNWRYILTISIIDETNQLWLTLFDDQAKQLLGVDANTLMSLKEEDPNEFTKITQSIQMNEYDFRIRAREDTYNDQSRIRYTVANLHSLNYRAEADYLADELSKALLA
Replication protein A (RPA), Saccharomyces cerevisiae, sequence (P26754 whole entry, chain 2 of 3): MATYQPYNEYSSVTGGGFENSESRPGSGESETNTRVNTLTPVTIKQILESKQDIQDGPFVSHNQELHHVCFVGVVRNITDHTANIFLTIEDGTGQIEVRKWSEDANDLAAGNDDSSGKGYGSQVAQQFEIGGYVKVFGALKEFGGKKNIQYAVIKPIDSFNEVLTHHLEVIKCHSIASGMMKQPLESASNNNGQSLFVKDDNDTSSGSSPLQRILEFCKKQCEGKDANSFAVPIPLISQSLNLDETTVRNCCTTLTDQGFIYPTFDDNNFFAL
Replication protein A (RPA), Saccharomyces cerevisiae, sequence (P26755 whole entry, chain 3 of 3): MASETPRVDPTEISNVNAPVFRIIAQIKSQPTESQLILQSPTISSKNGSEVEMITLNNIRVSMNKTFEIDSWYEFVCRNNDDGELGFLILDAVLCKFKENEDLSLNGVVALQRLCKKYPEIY

binding result [2]	binding result [3]	Binder	Kd [1]
		84-mer ssDNA (ssDNA) DNA: GGTAGCGGTTGGGTGAGTGGTGGGGAGGGTCGGGAGGTGGCGTAGAAACATGATAGGAATGTGAATGAATGAAGTACAAGTAAA	230 nM
binds	binds	His6-tagged Mei5-Sae3 heterodimer (complex, Saccharomyces cerevisiae) chain 1: MHNQEEWLDKDKTLVNEEENTCINHSYTKKDTNNYRVGKSGIKDLKKPTNQKEIAIKNRELTKQLTLLRQENNHLQQACKILSENKIIENRKSIEKWRTICEMELSFILNSTLIKINRMGGYKDFLEKEMEAKKRRLEYQIDNGMEDQICEIKESDDFRQLSEVEKQEWESQMNEQLKELEKKKIAELEKLNKVLHDSEGKDFGMAELCTRLKLDYSLIFPQ chain 2: MNYLETQLNKKQKQIQEYESMNGNLIKMFEQLSKEKKNDETPKKISSTYIKELKEYNELRDAGLRLAQIIADEKQCKIKDVFEEIGYSMKD	
